* marks the point of attachment. Biotin = O=C1N[C@H]2[C@H](CS[C@H]2CCCCC(=O)*)N1
Legend:
[1] = target: T1, Peptide_031 (human); experiment: peptide array
T1 peptide: IATPRGAAPPGQKGQ
Experimental: (§1) Chimeric IgG antibodies were diluted to a concentration of 5 μg/mL in 3% bovine serum albumin in Tris-buffered saline (10 mM Tris, pH 7.5, 150 mM NaCl) supplemented with 0.05% Tween®20 (3% BSA-TBST). Diluted antibodies were allowed to bind to peptides printed onto slides for 2 hours at room temperature as described in the PepStar™ user manual (JPT Technologies). Following extensive washing (5×5 minutes with TBST), slides were incubated with secondary antibodies goat anti-human IgG, Alexa Fluor 568 conjugate, 1 μg/mL in 3% BSA-TBST) for 1 hour at room temperature. After extensive washing, (5×5 minutes with TBST, then 5×5 minutes with ultrapure water), slides were dried overnight and imaged using an Opera Phenix™ system in the 568 nm channel. Images were aligned to peptide array definition files using Galviewer software obtained from JPT Technologies and ImageJ software with control human IgG serving as landmarks.
(§2) Full-length human Tau (encoded by the microtubule-associated protein Tau isoform 2 gene (MAPT), amino acid sequence NCBI Reference Sequence No. NP_005901.2, SEQ ID NO: 1, variant designation “2N4R”) was divided into 15 amino acid peptides, offset by 5 amino acids (overlapping by 10 amino acids). Peptides were synthesized and covalently attached to silica slides in triplicate with a spot size of 0.5 mm (obtained from JPT Technologies, Berlin, Germany). Antibodies muIgG were diluted to a concentration of 30 μg/mL in 3% bovine serum albumin in Tris-buffered saline (10 mM Tris, pH 7.5, 150 mM NaCl) supplemented with 0.05% Tween® 20 (3% BSA-TBST). Diluted antibodies were allowed to bind to peptides printed onto slides for 2 hours at room temperature as described in the Pepstar™ user manual (JPT Technologies). Following extensive washing (5×5 min TBST), slides were incubated with secondary antibodies (donkey anti-mouse IgG, Alexafluor 647 conjugate, 5 μg/mL in 3% BSA-TBST) for 1 hour at room temperature. After extensive washing, (5×5 minutes TBST, 5×5 minutes ultrapure water), slides were dried under a stream of nitrogen and imaged on the Opera Phenix in the 647 nm channel. Images were aligned to peptide array definition file using Galviewer software obtained from JPT Technologies and ImageJ software with control mouse IgG serving as landmarks.

[2] = target: T2, Peptide_054 (human); experiment: peptide array
T2 peptide: LKHQPGGGKVQIINK
Experimental: as §1, §2

[3] = target: T3, Peptide_067 (human); experiment: peptide array
T3 peptide: KPGGGQVEVKSEKLD
Experimental: as §1, §2

[4] = target: T4, Peptide_071 (human); experiment: peptide array
T4 peptide: QSKIGSLDNITHVPG
Experimental: as §1, §2

[5] = target: T5, Peptide_072 (human); experiment: peptide array
T5 peptide: SLDNITHVPGGGNKK
Experimental: as §1, §2

[6] = target: T6, Peptide_070 (human); experiment: peptide array
T6 peptide: FKDRVQSKIGSLDNI
Experimental: as §1, §2

[7] = target: T7, Peptide_065 (human); experiment: peptide array
T7 peptide: KCGSLGNIHHKPGGG
Experimental: as §1, §2

[8] = target: T8, Peptide_084 (human); experiment: peptide array
T8 peptide: SIDMVDSPQLATLAD
Experimental: as §1, §2

[9] = target: T9, Peptide_073 (human); experiment: peptide array
T9 peptide: THVPGGGNKKIETHK
Experimental: as §1, §2

[10] = target: T10, full-length human Tau (Tau441; 2N4R), recombinant (human, UniProt P10636 1-758); experiment: Octet binning on biotin-r-Tau; competitor 1C7
T10 construct: made in E. coli, His6-Smt3 tag removed; biotinylated through amines for Octet and phage work; also called r-Tau; recombinant Tau
T10 sequence (P10636 other isoform, or with tags, fused parts or gaps limits assumed): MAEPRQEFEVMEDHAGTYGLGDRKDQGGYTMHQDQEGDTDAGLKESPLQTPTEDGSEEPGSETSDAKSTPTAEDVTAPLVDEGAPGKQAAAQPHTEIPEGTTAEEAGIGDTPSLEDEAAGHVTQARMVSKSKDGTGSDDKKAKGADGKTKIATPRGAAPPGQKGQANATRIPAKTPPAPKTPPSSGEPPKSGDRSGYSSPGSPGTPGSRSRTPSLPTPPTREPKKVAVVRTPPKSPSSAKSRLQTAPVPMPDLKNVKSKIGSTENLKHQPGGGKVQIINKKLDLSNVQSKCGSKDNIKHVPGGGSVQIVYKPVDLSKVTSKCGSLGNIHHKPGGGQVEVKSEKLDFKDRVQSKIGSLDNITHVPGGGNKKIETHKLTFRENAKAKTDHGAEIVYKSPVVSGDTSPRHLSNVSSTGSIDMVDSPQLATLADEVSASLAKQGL
Experimental: (§3) Epitope binning assays were performed using a FortéBio® Octet® RED384 instrument using FortéBio® Streptavidin biosensors. Biotinylated recombinant Tau was diluted to a concentration of 2 μg/mL in kinetic buffer (obtained from FortéBio®) and captured onto individual biosensors for 1 minute. A baseline was then established for 1 minute in kinetic buffer. The loaded biosensors were dipped into 10 μg/mL of the first chimeric IgG antibody until signal saturation, followed by dipping into 1 μg/mL of a second antibody. The binding for the second antibody was normalized to its total binding in the absence of the first antibody.

[11] = target: T10, full-length human Tau (Tau441; 2N4R), …; experiment: Octet binning on biotin-r-Tau; competitor 1G7
Experimental: as §3

[12] = target: T10, full-length human Tau (Tau441; 2N4R), …; experiment: SPR Biacore, IgG captured, r-Tau injected
Experimental: The affinity of chimeric IgG antibodies 1C7, 1A1, 1A5, 1D10, and 1G7 for recombinant Tau was determined by surface plasmon resonance using a Biacore™ T200 instrument. Biacore™ Series S CM5 sensor chips were immobilized with monoclonal mouse anti-human IgG (Fc) antibody (human antibody capture kit from GE Healthcare). 1 μg/mL of antibody was captured for 1 minute on each flow cell and serial 3-fold dilutions of recombinant Tau were injected at a flow rate of […]. Each sample was analyzed with a 3-minute association and a 10-minute dissociation. After each injection the chip was regenerated using 3M MgCl₂. Binding response was corrected by subtracting the RU from a flow cell capturing an irrelevant IgG at similar density. A 1:1 Languir model of simultaneous fitting of kₒₙ and koff was used for kinetics analysis.

[13] = target: T10, full-length human Tau (Tau441; 2N4R), …; experiment: Octet binning on biotin-r-Tau; competitor 1D10
Experimental: as §3

[14] = target: T10, full-length human Tau (Tau441; 2N4R), …; experiment: Octet binning on biotin-r-Tau; row antibody Ab107 (anti-BACE1 control)
Experimental: as §3

[15] = target: T11, Tau 251-270 peptide, unphosphorylated (human, N-terminal biotin; C-terminal amide); experiment: ELISA on biotinylated peptide
T11 peptide: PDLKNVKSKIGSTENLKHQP
Experimental: (§4) Peptides corresponding to original binding sites on the microarray were synthesized and included all permutations of phospho-serine epitopes. Peptides were synthesized with a biotinylated N-terminus and C-terminal amide. Peptides were purified and confirmed by mass spectrometry. Peptides were then bound to streptavidin-coated plates in half serial dilutions from 250 ng/well of each peptide. Antibody binding was tested at 1 μg/mL in 5% BSA TBST, followed by washing and detection with goat anti-human HRP (as described above in the “Chimeric IgG ELISA” section).

[16] = target: T12, Tau 346-360 peptide, unphosphorylated (human, SMILES …); experiment: ELISA on biotinylated peptide
T12 peptide: Biotin-FKDRVQSKIGSLDNI-NH2
Experimental: as §4

[17] = target: T10, full-length human Tau (Tau441; 2N4R), …; experiment: Octet binning on biotin-r-Tau; competitor 1A5
Experimental: as §3

B1: chimeric IgG clone 1A5 (antibody, V domains shown)
VH: EVQLQQSGAELVRPGASVKLSCTASGFNIKDSLIHWVKQRPEQGLEWIGWIDPEDGETKYAPKFQDKATKTADTSSNTAYLQLSSLTSEDTAIYYCASGEWDYWGQGTSVTVSS
VL: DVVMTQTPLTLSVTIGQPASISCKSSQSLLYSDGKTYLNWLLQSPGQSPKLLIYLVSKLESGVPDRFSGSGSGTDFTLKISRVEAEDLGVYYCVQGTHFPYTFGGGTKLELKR
notes: mouse-human chimeric IgG from HEK293
[1]
  binding result: no binding (tested: 5 ug/mL)
[2]
  binding result: no binding (tested: 5 ug/mL)
[3]
  binding result: no binding (tested: 5 ug/mL)
[4]
  binding result: no binding (tested: 5 ug/mL)
[5]
  binding result: no binding (tested: 5 ug/mL)
[6]
  binding result: binds
[7]
  binding result: no binding (tested: 5 ug/mL)
[8]
  binding result: no binding (tested: 5 ug/mL)
[9]
  binding result: no binding (tested: 5 ug/mL)
[10]
  normalized binding of second antibody: 0.7
[11]
  normalized binding of second antibody: -0.1
[12]
  Kd: 0.2 nM
[13]
  normalized binding of second antibody: -0.35
[14]
  normalized binding of second antibody: 1
[15]
  binding result: binds
[16]
  binding result: binds
[17]
  normalized binding of second antibody: -0.13

B2: chimeric IgG clone 1A1 (antibody, V domains shown)
VH: EVQLQQSGAELVRPGASVRLSCTASGFNIKDSLMHWLKQRPEQGLEWIGWIDPEDGETKYAPKFQDKATITADTSSNTAYLQLSSLTSEDTAIYYCTRRDWEGPWGQGTLVTVSA
VL: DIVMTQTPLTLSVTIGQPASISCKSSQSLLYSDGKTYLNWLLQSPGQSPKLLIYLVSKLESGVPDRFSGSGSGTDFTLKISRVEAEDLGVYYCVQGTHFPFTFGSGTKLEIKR
notes: mouse-human chimeric IgG from HEK293; also called anti-Tau 1A1; anti-Tau^1A1
[1]
  binding result: no binding (tested: 5 ug/mL)
[2]
  binding result: no binding (tested: 5 ug/mL)
[3]
  binding result: no binding (tested: 5 ug/mL)
[4]
  binding result: no binding (tested: 5 ug/mL)
[5]
  binding result: no binding (tested: 5 ug/mL)
[6]
  binding result: binds
[7]
  binding result: no binding (tested: 5 ug/mL)
[8]
  binding result: no binding (tested: 5 ug/mL)
[9]
  binding result: no binding (tested: 5 ug/mL)
[12]
  Kd: 0.02 nM
[15]
  binding result: binds
[16]
  binding result: binds

B3: chimeric IgG clone 1G7 (antibody, V domains shown)
VH: EVQLQQSGAEVVRPGASVKLSCTTSGFNIKDSLMHWLKQRPEQGLEWIGWIDPEDGETKYAPKFQDKATITADTSSNTAYLQLSSLTSGDTAIYYCARRDWEGPWGQGTLVTVSA
VL: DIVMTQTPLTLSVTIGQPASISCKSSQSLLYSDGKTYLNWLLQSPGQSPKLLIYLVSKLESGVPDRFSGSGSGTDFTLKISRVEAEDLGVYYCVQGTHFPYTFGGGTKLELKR
notes: as for B1
[1]
  binding result: no binding (tested: 5 ug/mL)
[2]
  binding result: no binding (tested: 5 ug/mL)
[3]
  binding result: no binding (tested: 5 ug/mL)
[4]
  binding result: no binding (tested: 5 ug/mL)
[5]
  binding result: no binding (tested: 5 ug/mL)
[6]
  binding result: binds
[7]
  binding result: no binding (tested: 5 ug/mL)
[8]
  binding result: no binding (tested: 5 ug/mL)
[9]
  binding result: no binding (tested: 5 ug/mL)
[10]
  normalized binding of second antibody: 0.85
[11]
  normalized binding of second antibody: -0.03
[12]
  Kd: 0.1 nM
[13]
  normalized binding of second antibody: -0.12
[14]
  normalized binding of second antibody: 1
[15]
  binding result: binds
[16]
  binding result: binds
[17]
  normalized binding of second antibody: -0.04

B4: murine anti-Tau hybridoma antibody 17G2.A1 (antibody, V domains shown)
VH: QVQLQQPGAELVGPGSSVKLSCKASGYTFINYWIDWMKQSPGQGLEWIGNIYPSDSESHYNQKFTDKATLTVDISSSTAYLQLSSLTSEDSAVYYCALYSKGYWGQGTSVTVSS
VL: DVLMTQTPLSLPVTLGDQASISCRSSQNIVHTNGNTYLEWYLQKPGQSPKLLIYKLSSRFSGVPDRFSGSGSGTDFTLKISRVEAEDLGVYYCFQGSHLPFTFGGGTKLEIKR
notes: mouse IgG from hybridoma; also called anti-Tau 17G2.A1
[1]
  binding result: no binding (tested: 30 ug/mL)
[2]
  binding result: no binding (tested: 30 ug/mL)
[3]
  binding result: no binding (tested: 30 ug/mL)
[4]
  binding result: no binding (tested: 30 ug/mL)
[5]
  binding result: no binding (tested: 30 ug/mL)
[6]
  binding result: no binding (tested: 30 ug/mL)
[7]
  binding result: no binding (tested: 30 ug/mL)
[8]
  binding result: no binding (tested: 30 ug/mL)
[9]
  binding result: no binding (tested: 30 ug/mL)

B5: chimeric IgG clone 1D10 (antibody, V domains shown)
VH: EVQLQQSGAELVRPGASVKLSCTASGFNIKDSLMHWMKQRPEQGLEWIGWIDPEDGETKYAPKFQDKATLTADTSSNAAYLQLSSLTSEDTAIYYCVRGDWDGGYWGQGTTLTVSS
VL: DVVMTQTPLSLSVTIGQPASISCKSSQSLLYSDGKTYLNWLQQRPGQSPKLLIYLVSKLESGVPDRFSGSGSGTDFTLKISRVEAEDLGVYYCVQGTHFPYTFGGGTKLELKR
notes: as for B1
[1]
  binding result: no binding (tested: 5 ug/mL)
[2]
  binding result: no binding (tested: 5 ug/mL)
[3]
  binding result: no binding (tested: 5 ug/mL)
[4]
  binding result: no binding (tested: 5 ug/mL)
[5]
  binding result: no binding (tested: 5 ug/mL)
[6]
  binding result: binds
[7]
  binding result: no binding (tested: 5 ug/mL)
[8]
  binding result: no binding (tested: 5 ug/mL)
[9]
  binding result: no binding (tested: 5 ug/mL)
[10]
  normalized binding of second antibody: 0.88
[11]
  normalized binding of second antibody: 0.12
[12]
  Kd: 0.2 nM
[13]
  normalized binding of second antibody: -0.05
[14]
  normalized binding of second antibody: 1
[15]
  binding result: binds
[16]
  binding result: binds
[17]
  normalized binding of second antibody: -0.07

Source: patent US20200216522A1 (DENALI THERAPEUTICS, published 2020)
